Measurements: patent publication US20050037421A1 (INSTITUTE FOR ANTIBODIES, published 2005)

B1: anti-LDH VHH clone No. 415, protein A-fused type (VHH)
VHH: DVQLVESGGGSEQAGGSLRLSCAAPNITYCTGDRSWYRQAPGKEREFVSSINNDGTASYADSVKGRFTISQDIVKKSVYLRMNSLKPEDTAMYYCKTDFVDGTWCAIKFGRTHWGQGTQVTVSS
notes: not shown: protein A part of the vector after SalI digestion and self-ligation
B2: anti-GST VHH clone No. 75, protein A-fused type (VHH, not shown: large carriers)
VHH: AVQLVDSGGGSVQAGGSLRLSCAASGTTYCTYDIAWYRQAPEKDYEFVSVIDSDGSTRYADSVKGRFTISRDNAKNTVYLQMNSLKPEDTAMYYCKTVFKSWCSDGLGTTLPNYWGQGTQVTVSS
B3: anti-GST VHH clone No. 29, protein A-fused type (VHH, not shown: large carriers)
VHH: EVQLVESGGGSVQAGGSLKLSCGLSGYTSSMNAMGWFRQAPGKEREGVAAVSRGGKAYYADSVKGRFTVSRDNVKNTVDLQMKGLKAEDTATYYCAATDESPLRRRFSLLDRRRYDWWGRGTQVFVSS
B4: anti-LDH VHH clone No. 430, protein A-fused type (VHH)
VHH: EVQLVESGGDSVQAGGSLRLSCVASSSTYSGNCMAWFRQAPGKEREGVAVVYTDDDTTYYADSVKGRFTISQDTAKNTLYLQMNSLKPEDTAMYYCATRDAWRRIGSWRDVAIYDYWGQGTQVTVSS
notes: as for B1
B5: anti-LDH VHH clone No. 407, protein A-fused type (VHH)
VHH: AVQLVESGGGSVQTGGSLRLSCVASGYTYSSARIGWFRQAPGKEREGVAAILTDGVTTYYADAVKGRFTISRDNAKNTVYLQMNSLKPEDTAMYYCAIRTSPYSGGWFRVSQYNGWGQGTQVTVSS
notes: as for B1
B6: anti-LDH VHH clone No. 418, protein A-fused type (VHH, not shown: large carriers)
VHH: EVQLVESGGGSVQAGDSLRLSCTTSGFTFANSVMVWYRQGSGNECKLVSSISTDGTTYYSTSVKGRFTISRDNAKNTVYLQMNNLKAEDTAMYYCAADFQASTVGRCDGYGYAKWGQGTQVTVSS
B7: anti-LDH VHH clone No. 426, protein A-fused type (VHH)
VHH: EVQLVESGGGSVQAGGSLRLSCAAPGNTYSTNLMGWFRQAPGKEREGVAAICCGRGTTFYADSVKGRFTISQDNAKKMVYLQMELLRPEDTGIYYCASGSVRGIWSGTSQYKYWGQGTQVTVSS
notes: as for B1
B8: anti-LDH VHH clone No. 428, protein A-fused type (VHH)
VHH: QVQLVESGGGLVQPGGSLRLSCAASGFSFSRSGMSWGRQAPGKGFEWVSRISSGGATWYADSVKGRFSISRDNAKNTVYLQLDSLKTEDTGMYYCAASDRSGSTYRGQGTQVTVSS
notes: as for B1
B9: anti-LDH VHH clone No. 434, protein A-fused type (VHH)
VHH: EVQLVESGGGSVQAGGSLRLSCAASGYTSGRNYMAWFRQAPGKEREGVGRIYSTGGSARYADSVKGRFTISQDLSNDTMYLQMNNLKPEDTGMYYCAAGKPYGDMLDARGYKYWGHGTQVTVSS
notes: as for B1
B10: anti-LDH VHH clone No. 421, protein A-fused type (VHH)
VHH: AVQLVESGGGSVQAGGFLRLSCVASVNYCMAWFRQAPGKEREGVAAINRDGRTTAYADSVKGRFTISRGNEKNTVYLLMNNLKAEDTATYYCAAYVGGSYSCGTLENDGYKYWGQGTQVTVSS
notes: as for B1

Tests used:
[1] = biological target: T1, Bacillus stearothemophillus-derived lactic acid dehydrogenase (L-LACTIC DEHYDROGENASE) expressed in E. coli (Bacillus stearothemophillus, UniProt P00344 1-317); assay: ELISA: LDH on the plate (PBS wells as negative control), culture supernatant with VHH-cp3, anti-cp3 monoclonal and anti-mouse IgG-POD, OD 492 nm
T1 construct: purity about 80%; also called LDH
T1 sequence (P00344 whole entry): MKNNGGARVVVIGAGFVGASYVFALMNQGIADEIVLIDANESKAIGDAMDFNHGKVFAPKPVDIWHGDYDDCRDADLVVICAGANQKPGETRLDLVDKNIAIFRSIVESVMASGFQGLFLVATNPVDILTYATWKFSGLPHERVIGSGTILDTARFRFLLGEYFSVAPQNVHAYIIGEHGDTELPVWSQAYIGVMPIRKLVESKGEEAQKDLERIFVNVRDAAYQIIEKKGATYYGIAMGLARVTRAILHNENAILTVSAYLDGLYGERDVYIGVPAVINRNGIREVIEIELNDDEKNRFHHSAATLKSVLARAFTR
Protocol: Similarly to anti-GST VHH, 60 clones and 36 clones were prepared as monoclones from the 3rd and 4th screenings, respectively. Next, ELISA was performed similarly as for anti-GST VHH.
LDH dissolved in PBS at 200 μg/mL was used to sensitize MaxiSorp™. Culture supernatant, 10-fold diluted mouse anti-cp3 monoclonal 3G3A8H1, and 1000-fold diluted goat anti-mouse IgG (H+L)-POD were added as primary, secondary, and tertiary antibodies, respectively, to this antigen-sensitized plate. As negative control, PBS was added instead of performing antigen sensitization.

[2] = biological target: glutathione S-transferase (GST); assay: cell-based or functional assay
[3] = biological target: glutathione S-transferase (GST); assay: SPR (BIAcore 1000), GST immobilized on CM5, Langmuir model, global fitting
[4] = biological target: glutathione S-transferase (GST); assay: SPR (BIAcore 1000), GST immobilized on CM5 at 2252 RU
[5] = biological target: glutathione S-transferase (GST); assay: SPR (BIAcore 1000), GST immobilized on CM5, global fitting; mass transport limitation, value used as the lower limit
[6] = biological target: glutathione S-transferase (GST); assay: SPR (BIAcore 1000), GST immobilized on CM5, from kinetic analysis
[7] = biological target: glutathione S-transferase (GST); assay: SPR (BIAcore 1000), GST immobilized on CM5
[8] = biological target: glutathione S-transferase (GST); assay: SPR (BIAcore 1000), GST immobilized on CM5 at 1750 RU
[9] = biological target: T1, Bacillus stearothemophillus-derived …; assay: SPR (BIAcore), LDH immobilized on CM5, 1:1 binding with mass transfer model
Protocol: (§1) […] on CM5 were activated using EDC/NHS (equal amounts of EDC and NHS of Amine Coupling Kit (BIAcore) were mixed) (8-minute contact time), and the chip was washed with HBS-EP (BIAcore). Twenty μg/mL of LDH (Sigma, […] diluted in 10 mM acetic acid (pH5.0)) was then added to the chip. After washing the chip with HBS-EP, 1 M ethanol amine (pH 8.5) was added to inactivate the remaining activated carboxyl groups. Following the inactivation, the chip was washed with HBS-EP to remove all LDHs that had not been covalently bound. The amount of immobilized antigens was calculated 5653 RU. When binding was evaluated by adding saturating amounts of clone No. 430 to the sensor, the value was near 800 RU.
(§2) All experiments were performed in HBS-EP at 25° C., and regeneration was performed under optimum conditions. Washing was performed for 1 min using 50 mM citric acid (pH2.5).
(§3) The binding was monitored by changing the LDH concentration (5×10⁻⁸ M to 4.0×10⁻⁷ M). […] Base-line correction was also taken into consideration. Values of ka (1/Ms), kd (1/S), and KD calculated based on kinetic analysis using global fitting (BIAevaluation Ver. 3) were as shown in Table 6.

[10] = biological target: T1, Bacillus stearothemophillus-derived …; assay: cell-based or functional assay
[11] = biological target: T1, Bacillus stearothemophillus-derived …; assay: SPR (BIAcore), LDH immobilized on CM5, (Langmuir) binding model
Protocol: as §1, §2, §3

[12] = biological target: T1, Bacillus stearothemophillus-derived …; assay: SPR (BIAcore), LDH immobilized on CM5 at 5653 RU
Protocol: Procedure similar to that with GST was used to immobilize LDH on CM-sensor chip (Sensor Chip CM5, Research grade, BIAcore) using the amino coupling method.
as §1

Binder	binding result [1]	Ka [9] [M⁻¹]	Kd [9] [nM]	koff [9] [s⁻¹]	kon [9] [M⁻¹ s⁻¹]	Ka [11] [M⁻¹]	Kd [11] [nM]	koff [11] [s⁻¹]	kon [11] [M⁻¹ s⁻¹]	response at saturating amount (RU) [12] [RU]	LDH reaction rate in the direction of lactic acid production [10] [fold]	also measured
B1	binds	–	–	–	–	–	–	–	–	–	–	–
B2	–	–	–	–	–	–	–	–	–	–	–	GST enzyme inhibitory activity (absorbance at 340 nm, CDNB and glutathione as substrates) [2]: > 1.5 µM; kon [3]: 38100 M⁻¹ s⁻¹; response at saturating amount (RU) [4]: 300 RU; koff [5]: 0.000915 s⁻¹; Kd [6]: 24 nM
B3	–	–	–	–	–	–	–	–	–	–	–	koff [7]: 0.00255 s⁻¹; kon [7]: 25400 M⁻¹ s⁻¹; response at saturating amount (RU) [8]: 460 RU; Kd [6]: 100 nM
B4	–	4.04e+06	248	0.00285	11500	3.8e+06	263	0.00258	9820	~800	–	IC50 of LDH enzyme inhibition [10]: ~400 nM
B5	binds	–	–	–	–	–	–	–	–	–	–	–
B6	–	–	–	–	–	–	–	–	–	–	10	–
B7	binds	–	–	–	–	–	–	–	–	–	–	–
B8	–	2.86e+06	350	0.00516	14800	2.81e+06	356	0.00513	14400	~500	5	–
B9	binds	–	–	–	–	–	–	–	–	–	–	–
B10	–	5.83e+06	171	0.00409	23900	5.83e+06	172	0.00409	23900	~1400	10	–
